Data as given in patent publication US20240182585A1.

Molecular target: His-tagged human GFRAL (recombinant soluble GFRAL protein, R&D catalogue no. 9647-GR-050) (human) (UniProt Q6UXV0)
Experiment: SPR sandwich assay: row antibody captured via anti-Fc, GFRAL antigen added, then mAbQ injected as analyte (competitor: mAb Q)

Chain of His-tagged human GFRAL (recombinant soluble GFRAL protein, R&D catalogue no. 9647-GR-050) (human) (Q6UXV0 19-351): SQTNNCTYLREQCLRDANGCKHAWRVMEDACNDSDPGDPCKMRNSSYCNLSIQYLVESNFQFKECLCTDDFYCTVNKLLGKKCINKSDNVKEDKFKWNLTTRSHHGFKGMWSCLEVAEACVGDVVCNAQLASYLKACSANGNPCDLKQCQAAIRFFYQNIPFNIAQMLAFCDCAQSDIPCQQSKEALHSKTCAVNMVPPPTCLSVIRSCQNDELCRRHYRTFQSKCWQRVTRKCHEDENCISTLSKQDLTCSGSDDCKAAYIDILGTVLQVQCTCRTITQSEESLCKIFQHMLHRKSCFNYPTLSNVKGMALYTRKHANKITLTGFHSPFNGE

resonance units after mAbQ injection (resonance units): 4
Substance: IgG4PE (negative control) (antibody)
